# Laboratory results from paper PMC9814621, “Nanoscopic investigation of C9orf72 poly-GA oligomers on nuclear membrane disruption by a photoinducible platform” (Communications Chemistry, 2021).
# Ends that are not written are not given here.
# Tests used:
# [1] = target: the molecule itself; test: transmission electron microscopy; time course of the probe solution with or without irradiation (ADP-1 50 uM; 365 nm, 32 mW/cm^2, 1 min)
# [2] = target: the molecule itself; test: fluorescence lifetime imaging microscopy (self-quenching); SH-SY5Y cells treated with 1 uM ADP-2 and photoinitiated; fixed 2, 12 and 24 h after UV
Protein,binding result [1],binding result [2]
"CGAGAGAGAGAGAGAGAGAGAGAGA (N-terminal cysteine followed by 12 glycine-alanine repeats; poly-GA dipeptide repeat translated from the G4C2 repeat expansion of C9orf72 (not part of the C9orf72 protein itself); also called (GA)12; ADP-1-derived GA DPRs; source: synthetic peptide (Fmoc chemistry, HPLC purified), released from ADP-1 by 365-nm light; also released inside SH-SY5Y cells treated with ADP-1) [GA DPRs fragment photoreleased from ADP-1 [cysteine-(glycine-alanine)12]]",binds,
C(Alexa Fluor 488 C5 maleimide)GAGAGAGAGAGAGAGAGAGAGAGA (N-terminal cysteine (labelled) followed by 12 glycine-alanine repeats; poly-GA dipeptide repeat of the C9orf72 repeat expansion; also called AF-488-labeled GA DPRs; ADP-2-derived GA DPRs; source: also released inside SH-SY5Y cells treated with ADP-2),,binds
